The text below walks through data of paper PMC4858697, “Crystal structure of TRAF1 TRAF domain and its implications in the TRAF1-mediated intracellular signaling pathway” (Scientific Reports, 2016).

To fix the notation:
B2: human TRAF1 TRAF domain (residues 220-416), containing the TRAF-N coiled-coil domain and the TRAF-C domain (domain or fragment, UniProt Q13077 220-416, looked up)
chain: HQSQLDRERILSLEQRVVELQQTLAQKDQALGKLEQSLRLMEEASFDGTFLWKITNVTRRCHESACGRTVSLFSPAFYTAKYGYKLCLRLYLNGDGTGKRTHLSLFIVIMRGEYDALLPWPFRNKVTFMLLDQNNREHAIDAFRPDLSSASFQRPQSETNVASGCPLFFPLSKLQSPKHAYVKDDTMFLKCIVETST
notes: TNF-receptor associated factor 1 (TRAF1), human, TRAF domain, amino acids 220-416, cloned into pET24a; Trimer in the crystal and in solution (SEC, MALS); also called wildtype TRAF1; not shown: His-tag, C-terminal, kept

The target in data set [1] is TANK peptide PEP (Homo sapiens) (UniProt Q92844). Particulars: cited from earlier work.
TANK peptide PEP (Homo sapiens), sequence (Q92844 178-198): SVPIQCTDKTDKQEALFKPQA
The target of data set [2] is B2. The data set can be described thus: ITC; NanoITC; 1 mM TANK peptide injected into ~20 uM wildtype or mutant TRAF1 in the cell; PBS; 15 °C; 25 injections; single site model. The note with it: both partners purified. A general note: Isothermal titration calorimetry measures the heat released or taken up as one component is titrated into another.
Data set [3] deals with the molecule itself. Description: SEC; Superdex 200 10/30 gel filtration in 20 mM sodium citrate pH 5.0, 1 M NaCl.

With TRAF3 (from UniProt Q13114), the dissociation constant Kd (commonly the constant that tells how readily two partners part at equilibrium) in data set [1] is 23.9 µM.

B1: TANK peptide (SVPIQCTDKT) (peptide)
peptide: SVPIQCTDKT
notes: also called I-TRAF; source: synthetic peptide (Peptron, Dae-jeon, South Korea)
For B1, in data set [2], the dissociation constant (Kd) was found to be 13.6 µM.
As for B2, in data set [3], the stoichiometry N (as a rule, a count of units in the complex or per binding partner) worked out at 3.
